Reverse-splicing fitness data for 83 variants are collected here from the RNAGym collection of RNA variant scans (doi:10.1093/molbev/msab373).

B1: Azoarcus group I ribozyme (parent)
chain: GUGCCUUGCGCCGGGAAACCACGCAAGGGAUGGUGUCAAAUUCGGCGAAACCUAAGCGCCCGCCCGGGCGUAUGGCAACGCCGAGCCAAGCUUCGGCGCCUGCGCCGAUGAAGGUGUAGAGACUAGACGGCACCCACCUAAGGCAAACGCUAUGGUGAAGGCAUAGUCCAGGGAGUGGCGAAAGUCACACAAACCGG

The data set covers variants of B1. Description: reverse-splicing fitness (ratio to wild type); higher = more active; in vitro selection; Mg2+ level not given. The essentials:
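An in vitro group I ribozyme library with randomized positions was T7-transcribed and gel-purified. In triplicate, 10 pmol RNA in EPPS pH 7.5 was reacted with 50 pmoles of a 30-nt RNA substrate for 1 h at 37 °C across several added MgCl2 levels (1–48 mM), then stopped with EDTA. Products were reverse transcribed from a substrate-complementary primer, PCR-amplified and sequenced (HiSeq 4000). Fitness is a variant's read proportion after selection over that before, normalised to wild type.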
Regarding C82A A111U A120G C169U U176C, the reverse-splicing fitness was found to be 0.0195.
Then C82A A111U A120G C169U U176G, with 0.00615; and C82A A111U A120G C169U U176A, with 0.0201; and C82A A111U A145C C150U C169A U176A, with 0.0133.
Consider C82A A111U A145C C150U C169A U176C, for which the reverse-splicing fitness is 0.00736.
On to C82A A111U A145C C150U C169A U176G, for which the reverse-splicing fitness was found to be 0.00747.
Turning to C82A A111U A120U A145G C150G C169A U176C, the reverse-splicing fitness is 0.0099.
The value for C82A A111U A120U A145G C150G C169A U176A was 0.0119; that for C82A A111U A120U A145G C150G C169A U176G was 0.00618; that for C82A A111U A120U A145G U176G was 0.00319.
Consider C82A A111U A120U A145G U176A, for which the reverse-splicing fitness stood at 0.00766.
With C82A A111U A120U A145G U176C, the reverse-splicing fitness turned out to be 0.0114.
For the variant C82A A111U A120U C150A C169A U176A, the reverse-splicing fitness was 0.00679.
The value for C82A A111U A120U C150A C169A U176C was 0.00509; that for C82A A111U A120U C150A C169A U176G was 0.00306.
In the case of C82A A111U A120U C150G C169U, the reverse-splicing fitness was found to be 0.00659.
On to C82A A111U A120U C150G C169A, for which the reverse-splicing fitness amounted to 0.00872.
For C82A A111U A120U C150G C169G, the reverse-splicing fitness amounted to 0.00683.
The value for C82A A111U A145C C150U C169G U176C was 0.0141.
As to C82A A111U A145C C150U C169G U176G, the reverse-splicing fitness was determined as 0.00743.
For C82A A111U A145C C150U C169G U176A, the reverse-splicing fitness came out at 0.0233.
Then C82A A111U A120U A145C C150U U176G, with 0.00319.
The value for C82A A111U A120U A145C C150U U176C was 0.00533; that for C82A A111U A120U A145C C150U U176A was 0.00482; that for C82A A111U A120U A145G C150A C169A was 0.00807.
Take C82A A111U A120U A145G C150A C169U: the reverse-splicing fitness turned out to be 0.00475.
Then C82A A111U A120U A145G C150A C169G, with 0.00618; and C82A A111U A120U C169G U176C, with 0.00453; and C82A A111U A120U C169G U176A, with 0.00417.
Regarding C82A A111U A120U C169G U176G, the reverse-splicing fitness came to 0.00236.
Consider C82A A111U A120U A145G C169G U176A, for which the reverse-splicing fitness was 0.00391.
As to C82A A111U A120U A145G C169G U176C, the reverse-splicing fitness is 0.00486.
Take C82A A111U A120U A145G C169G U176G: the reverse-splicing fitness amounted to 0.00182.
Turning to C82A A111U A145C C150A C169A, the reverse-splicing fitness came out at 0.00947.
Consider C82A A111U A145C C150A C169U, for which the reverse-splicing fitness was 0.011.
Regarding C82A A111U A145C C150A C169G, the reverse-splicing fitness was found to be 0.00849.
The value for C82A A111U A145C C150U U176A was 0.0254.
C82A A111U A145C C150G C169U U176G: the reverse-splicing fitness worked out at 0.00633.
For the variant C82A A111U A145C C150G C169U U176C, the reverse-splicing fitness was determined as 0.0103.
C82A A111U A145C C150G C169U U176A: the reverse-splicing fitness is 0.00896.
Turning to C82A A111U A120U A145C C150G C169A U176A, the reverse-splicing fitness is 0.00316.
As to C82A A111U A120U A145C C150G C169A U176G, the reverse-splicing fitness turned out to be 0.00234.
With C82A A111U A120U A145C C150G C169A U176C, the reverse-splicing fitness worked out at 0.00302.
Then C82A A111U A120U C169U U176G, with 0.00228.
On to C82A A111U A120U C169U U176C, for which the reverse-splicing fitness stood at 0.00461.
In the case of C82A A111U A120U C169U U176A, the reverse-splicing fitness stood at 0.00519.
As for C82A A111U A120U A145C C169A U176G, the reverse-splicing fitness worked out at 0.00209.
Then C82A A111U A120U A145C C169A U176A, with 0.00304.
For the variant C82A A111U A120U A145C C169A U176C, the reverse-splicing fitness amounted to 0.00227.
On to C82A A111U A120U A145C C150A C169A U176A, for which the reverse-splicing fitness is 0.00272.
For C82A A111U A120U A145C C150A C169A U176G, the reverse-splicing fitness is 0.00263.
Regarding C82A A111U A120U A145C C150A C169A U176C, the reverse-splicing fitness is 0.00299.
Then C82A A111U A120U A145G C150U, with 0.0195; and C82A A111U A120U A145G C150G, with 0.00842; and C82A A111U A120U A145G C150A, with 0.00899.
On to C82A A111U A120U A145C C150A C169U, for which the reverse-splicing fitness worked out at 0.00267.
As for C82A A111U A120U A145C C150A C169G, the reverse-splicing fitness came to 0.00256.
The value for C82A A111U A120U A145C C150A C169A was 0.00277; that for C82A A111U A120U A145G C169A U176A was 0.00409.
In the case of C82A A111U A120U A145G C169A U176G, the reverse-splicing fitness was 0.00239.
Turning to C82A A111U A120U A145G C169A U176C, the reverse-splicing fitness was found to be 0.00356.
Consider C82A A111U A145C C150A U176G, for which the reverse-splicing fitness is 0.00842.
Then C82A A111U A145C C150A U176C, with 0.0157; and C82A A111U A145C C150A U176A, with 0.0125.
On to C82A A111U A120U C169U, for which the reverse-splicing fitness came out at 0.00502.
Then C82A A111U A120U C169G, with 0.00434; and C82A A111U A120U C169A, with 0.00416; and C82A A111U A145C C150G C169A U176G, with 0.00755.
As to C82A A111U A145C C150G C169A U176A, the reverse-splicing fitness was 0.0086.
With C82A A111U A145C C150G C169A U176C, the reverse-splicing fitness is 0.0076.
The value for C82A A111U A120G C150U C169G U176C was 0.0205; that for C82A A111U A120G C150U C169G U176G was 0.00517.
Regarding C82A A111U A120G C150U C169G U176A, the reverse-splicing fitness turned out to be 0.0175.
As for C82A A111U A120U C150G C169G U176A, the reverse-splicing fitness amounted to 0.00475.
For C82A A111U A120U C150G C169G U176G, the reverse-splicing fitness came to 0.00289.
Regarding C82A A111U A120U C150G C169G U176C, the reverse-splicing fitness came to 0.00289.
C82A A111U A120U: the reverse-splicing fitness turned out to be 0.0228.
Consider C82A A111U A120U C150U U176G, for which the reverse-splicing fitness came to 0.00345.
Consider C82A A111U A120U C150U U176A, for which the reverse-splicing fitness was 0.00753.
Take C82A A111U A120U C150U U176C: the reverse-splicing fitness came to 0.00953.
For C82A A111U A120U A145U C150A C169U U176A, the reverse-splicing fitness is 0.00317.
With C82A A111U A120U A145U C150A C169U U176C, the reverse-splicing fitness was determined as 0.00277.
The value for C82A A111U A120U A145U C150A C169U U176G was 0.00245.
